Laboratory results as given in the DeepSol protein solubility set.

Assay: soluble on expression in E. coli; label from the status in PepcDB or PDB records

Sequence	soluble on expression in E. coli
MSSSSPGEPLEPTDQDLDVLLKNLGNLVTPMALRVAATLRLVDHLLAGADTLAGLADRTDTHPQALSRLVRHLTVVGVLEGGEKQGRPLRPTRLGMLLADGHPAQQRAWLDLNGAVSHADLAFTGLLDVVRTGRPAYAGRYGRPFWEDLSADVALADSFDALMSCDEDLAYEAPADAYDWSAVRHVLDVGGGNGGMLAAIALRAPHLRGTLVELAGPAERARRRFADAGLADRVTVAEGDFFKPLPVTADVVLLSFVLLNWSDEDALTILRGCVRALEPGGRLLVLDRADVEGDGADRFFSTLLDLRMLTFMGGRVRTRDEVVDLAGSAGLALASERTSGSTTLPFDFSILEFTAVSEEAAPAAQASEALPAQE	soluble
MGSDKIHHHHHHMNVEKLKKMKGKEKIVMVTAYDAPSARIARDAGIDVILVGDSLGNNVLGYENTIPVTMEEMLIHVAAVKRGAPDAFIVADMPFLSYQTSVEKAVENAGKFLKVGANAVKIEGGEEFGELVQKLVESGIPVMGHIGLTPQFVNRFGGYRVQGKTEKNREYLLRSARELEKRGAFAIVLELVVEEVAKEITESVSIPTIGIGSGRFCDGQVLVWHDLLGLNPDFAPRFSKKYANLYEVILKALQEFRREVKKGLFPTEEHSFTDKSKGGVSS	not soluble
MYYIASADSQQSQQGRSQAEAPEFLTEKCPFVGLKSTLEQVGTPR	not soluble
MGSDKIHHHHHHMQLSAMFVHPVKSCRGIAFDRAYAGKLGLLHDREWLLVSPDGQQITARAHPKLVTIRVELLPGGALLHHSGKAPIFAMATAYTRPHPAQVWKDGFQAWHGDERVDAWFADILGCDCRLLWLGAQSNRPFKGGPETMSFADGYPFLLASQASLDDLNRQLAAPVTLRHFRPNLVVSGAYPWEEDEWQVIRIGDVEFDVVKPCVRCVLTTVDPELGEKRADGEPLQTLIRTRMLDAGVCFGMNLRARNEGVLELGAPVEVLEQRYSF	not soluble
MGSDKIHHHHHHLGFKIEAELLQAMKDLKDSVPASGSERVRNEFIQILLSELPSQGIRRLLELGLLERLIPELMPAIGFDTRSSYHDKDVFEHSLAVLDNTEPNLTLRLAALLHDIDKPNSLTVDEDGEGYCYGHASGGSEIARTILGRLNFDRKTIKAVSAIIKEHMNDFENISELSIKRLIRRVGPDNIDRLFELQLADIKGSKLSSRSPERITKTRNKCFEVLSRREPLTVHDLDISGYDLFSLGYPPGKEIGEAMDYLLDQVINNPSLNQRDTLIALLMNQ	not soluble
MSLNHHPIIYLVDHQKDARAALSKLLSPLDVTIQCFASAESFMRQQISDDAIGMIIEAHLEDKKDSGIELLETLVKRGFHLPTIVMASSSDIPTAVRAMRASAADFIEKPFIEHVLVHDVQQIINGAKEGHHHHHH	soluble
MGSDKIHHHHHHMKRLAFVISSLGAGGAEKVLSLMSHYLAQKGISLTLISLGDSKSFYPLPAQAKIIALGECRSSKGVIDSLFQNLRRIQKLRQALRAARPDLILSFMTETNILSIIAAKSLGIPVIASEHTNYLWQPSRLWNRLRHLLYPLASATTLLTQRDKENHYGFLPQAKILPNPFDFPPLSPTPKEKIILGVGRLIKDKGFDRLIRAFSRISIGDYQLLIAGEGEERVRLEELIQSLGMEEKIHLLGSQKEIYPLYERASIFVLSSSMEGLSNALIEAMSMGCAVISFDCPYGPSEVITPQENGLLVPLHDEVALQEAMERLIQEEPLRQKLSQNAPKVRERFAIDRVMPQWEELMRSILDSTPSCSKES	not soluble
MSLNGDYQLTIDKMLESGVSSNPNQIINYSGKKTFTYKEFRERVYRLAKALISIGVKKGDTVAVIDWDTYVYLEAYFAVPMIGAVLHTVNVRYPQDLIYYTMDHAEDKYVIVRDEFVPILSKNKEAFYFIKGWIIYSEYGNVPDELSPKYIYDELMSKNYDIELPEISENDLATTFYTSGTTGIPKGVQFTHRQIVLHAISSGLALSDRPISLTADDVIMPLVPMFHVHAWGVPYMTIMSGRQYVLPGRYDFDHIIDLIAQENITVIAMVPSILYMIVTNPNVGKIAGRKIRAIIGGGALPEGLQKAAEKLGIMAISGYGLSETAPILTLATYNSDVKKLPLEEQKKYHLKTGIPIPLVQLRVIDDKWNDVPRDEKTIGEIVVRAPWLTSVYVKNKEGTEALWKGGWMHTGDLAVMDKFGYIKIVDREKDAVKSGGEFIPSLILEDAISACPGVVENAVVGKPHEKWGERPVAFYTGTAKPEEIRKCLEDIVRQGRIAKFWIPDDFINVKEFVKTSTGKIDKKVLREMLKKEGHHHHHH	soluble
MGSDKIHHHHHHMKLLLTRPEGKNAAMASALDALAIPYLVEPLLSVEAAAVTQAQLDELSRADILIFISTSAVSFATPWLKDQWPKATYYAVGDATADALALQGITAERSPADSQATEGLLTLPSLEQVSGKQIVIVRGKGGREAMADGLRLRGANVSYLEVYQRACPPLDAPASVSRWQSFGIDTIVVTSGEVLENLINLVPKDSFAWLRDCHIIVPSARVETQARKKGLRRVTNAGAANQAAVLDALGM	not soluble
MMIFEKIHTVPTSEELTNKAFKRAARAMSGKTIDGRDSRFKANESMLLTAANIFTDNLANIVRRFPSFEQLPRFYYELTDILVGVEKLKMSLASVDWASRKIHEVARSYVGKIRESDIPEPVRKEAFGRLASIINSINKDLLFLNEARNILRKLPDVQDEPTIVIAGYPNVGKSSFVSKITGATPEIAPYPFTTKGVTIGHFTRDGVRYQVMDTPGLLDRPMAERNDIERQAITAIHYLDAVVMVVIDPSESCGYELQDQRRLLAEIRENFNLPLLVVANKADRPEFMKMDEVELNMSTITGEGIEQVMDRLLEMIEEKRLRSLEEAPSEESDDESALLEHHHHHH	soluble
MSNTVATMINKRNIMRNYIKIGVAGPVGAGKTALIEKLTREIASKYSVAVITNDIYTQEDAEFLTKNSLLPPERIMGVETGGCPHTAIREDASMNLEAVDEMVTRFPDVEIVFIESGGDNLSATFSPDLADVTIFVIDVAQGEKIPRKGGPGITRSDLLVINKTDLAPFVGADLSVMERDARRMRNGQPFIFTNLMKKENLDGVIGWIEKYALLKNVEEPASLVRLEHHHHHH	soluble
MAFPRTLAILAAAAALVVACSHGGTPTGSSTTSGASPATPVAVPVPRSCAEPAGIPALLSPRDKLAQLLVVGVRDAADAQAVVTNYHVGGILIGSDTDLTIFDGALAEIVAGGGPLPLAVSVDEEGGRVSRLRSLIGGTGPSARELAQTRTVQQVRDLARDRGRQMRKLGITIDFAPVVDVTDAPDDTVIGDRSFGSDPATVTAYAGAYAQGLRDAGVLPVLKHFPGHGRGSGDSHNGGVTTPPLDDLVGDDLVPYRTLVTQAPVGVMVGHLQVPGLTGSEPASLSKAAVNLLRTGTGYGAPPFDGPVFSDDLSGMAAISDRFGVSEAVLRTLQAGADIALWVTTKEVPAVLDRLEQALRAGELPMSAVDRSVVRVATMKGPNPGCGR	not soluble
MNKKIVMSFLAATVVTISGCASFADMAGADSATLNASAAQGFSKMTTEARQKGQLDTSSNTYRRINTVMQRMIPYANQMNQTGQPFQWQLAVIKSDTVNAYVAPGGKVVFYTGIVNKLNLSDAEIAAVMGHEMTHALEEHAKSKIGAEALTGLALNIGKAYAGDSIGQAGSAALDLGSQVGVGLPYSRNLESRADYGGLMLMAKAGYNPQAAITLWEKMNRMDGAGGPSFLSTHPSNNQRIQDMRKNLPAAMAVYNNRRLEHHHHHH	not soluble
MAHHHHHHMSYYDKSDKIGYDDTDKELNEELEEMLARTPPHIQRHLQHRIHDGILQRMKEDTARRCWEFIKKYETCVNSVKPYDLTDCRPHRDALNDCAHEVNREQIYQKYRMMYLRGELLRLHESRLGQKMETMKVRAPDSIRGWKPDYAPKYAEMMSDIGLNLGPEAADERKLS	not soluble
MRIHSAGHSLPAPGPSVETTEKAVQSSSAQNPASCSSQTERPEAGSTQVRPNYPYSSVKTRLPPVSSTGQAISDTPSSLPGYLLLRRLDRRPLDEDSIKALVPADEALREARRALPFGRGNIDVDAQRTHLQSGARAVAAKRLRKDAERAGHEPMPENDEMNWHVLVAMSGQVFGAGNCGEHARIASFAYGALAQESGRSPREKIHLAEQPGKDHVWAETDNSSAGSSPIVMDPWSNGAAILAEDSRFAKDRSAVERTYSFTLAMAAEAGKVARETAENVLTHTTSRLQKRLADQLPNVSPLEGGRYQPEKSVLDEAFARRVSDKLNSDDPRRALQMEIEAVGVAMSLGAEGVKTVARQAPKVVRQARSVASSKGMPPRR	not soluble
MNAIILAAGFGSRLMPLTKDQPKCMVEYKNKKIIDYEIEALKSAGINEIAVVGGYLNDVLKNYLNKYDIEHFFINSKYDKTNMVHTFFCAKDFMLKCIEEKQDLIISYADIVYFQDCVQKLINAKEELAIVVDKSWCKLWSKRFANPLEDAETLKMTNGYIIELGKKANAYDEIEAQYIGLFKFSYQFLSEVIAFYEMLDRDILYDNKNFENMYMTSFLQALIEKYNNAKAVEIDGNWCEIDFMSDLEVQIEKLEHHHHHH	not soluble
MGSDKIHHHHHHMYSDLNEGVKPYRMTKSHKNIKQCDLLIAGGAAVGLTLAIALKQAAPELKINIVDAAPQEVIPVSNIRALALAAASIRMLKQLQCWEHIAPHAQPIHSMIITDAYTNDPVKPTLLTFEGDITPNEPFAAMVEHKELLNALKKRAKDLDIPFITNMRIVDFHQEDQHTTVTLSNKEIWQTKLLIAADGAHSKLREKAGLKKFSHSYTQTAIICTVEHEKPHHGQAIQHFLPAGPFALLPLKGNRSAIVWNEDHKTAQYYLKADALIFETEIEKRIGHRYGKLSWNGERQGFPLNLSLTRQCIKPRFALIGDAAHTIHPLAGQGLNLGLRDSAALAEVIIETARLGLDIGSLTALERYQSWRRFEIVRMALSNDWLNKLFSNDNLLLRTLRDVGLGIVNQTPKVKKYFIQEAAGLTPHAPRLLHGLPL	not soluble
MAHHHHHHMRKEEMNRNFQNASCKEDNYIKAWLKQTENPEFYKNLNDLDDQSYTNEFVKVVDFNNFNSNFINNMMEEPFGDEFSKQKKRKAYSLFYSNEIGPNNEENYDLKNIYTSFDDSDVKYLKSLDKTPSGNMKDRVKGRYKDEHMSIKKLKRENICNENNEPIFPNNIMMDNSPYYKFRHSNKKPSYGSESTNEFFNNYDFETPIKILSSKKKSYDFKNRKDNSTNTTKENSSRENVSSNNSETKRTINFSNKTDDFNDIPFNSDNEYISSPEYMDHEQNTKYINKKQREVNFLGQKLEYKVVGNVINCSKNHPQFTLF	not soluble
MYRMDKYTIGLIRVITLEDKEILNLHGRIIESAFPELKVVSRCIEDQPKGIYNEETEREAEPKIIRLAKEFEREGVDAIIISCAADPAVEKVRKLLSIPVIGAGSSVSALALAYGRRVGVLNLTEETPKVIRSILGNNLIAEDHPSGVSNTLDLLTDWGRREVINAAKRLKEKGVEVIALGCTGMSTIGIAPVLEEEVGIPVIDPVIASGAVALHALKRREVKRFEGR	soluble
MKEIWYVRHGETEWNAQRRFQGHLDIPLSPVGIGQAFRLAERLSRSRISFDRLYASDLRRARQTAEPLAQVLGLPIATTPLLREIHVGELAGLTRAEAEARFPSFLAEAAEDPWNARRPGGESMADLARRLQAFLEEVPPGRHLVVTHGGVIRAALKLALDLAGDTWRRFHIQNTSITRILYPENAVLTVADAAHLEVWADWLSDEDLKG	soluble
MNDMSDWKPKRFWKQAAVAETAEGYAVELDGRPVRTPAKAPLLLPTRALAEAIAAEWDAQESEVDPINMPFTRTANAAIDKVRIQQAEVADMLAAYGDSDLLCYRADSPAELVELQAQTWDPALDWAAETLGVRLRPVQGVMHQPQPASAIETLTRKVHALNPFQLAAFHDLVSLSGSLVLGFAAALNWRKADEIWQISRLDETWQEEQWGPDDEARALAAVKRAAFLHAKAAYDISTLEHHHHHH	not soluble
MIFVGNFIQDEKGKGLRIGFVHYRPFDETVGMNLPEETIRQMGALVDEIPEPEQREGKIPVMYYNPETNTVYYEYEDKPLSLEEEIKYLKELNAELIYQLMMKGAL	not soluble
